Target: WIN332 SOSIP Env trimer (HIV-1 strain BG505)
Assay: SEC

Substance: WIN332 SOSIP Env trimer (complex)
- stoichiometry N: 3

Source: paper PMC12956587
